Experimental data taken from patent US20140171625A1 (FATE THERAPEUTICS, published 2014).
Changes are numbered by the printed parent chain.

B1: FTV384, human CT-1 variant with both natural cysteines replaced with serines and an additional cysteine at its carboxyl terminus (ligand)
chain: MSRREGSLEDPQTDSSVSLLPHLEAKIRQTHSLAHLLTKYAEQLLQEYVQLQGDPFGLPSFSPPRLPVAGLSAPAPSHAGLPVHERLRLDAAALAALPPLLDAVSRRQAELNPRAPRLLRRLEDAARQARALGAAVEALLAALGAANRGPRAEPPAATASAASATGVFPAKVLGLRVSGLYREWLSRTEGDLGQLLPGGSAC
B2: wild type human cardiotrophin-1 (CT-1) polypeptide, FTV370 (ligand)
chain: SRREGSLEDPQTDSSVSLLPHLEAKIRQTHSLAHLLTKYAEQLLQEYVQLQGDPFGLPSFSPPRLPVAGLSAPAPSHAGLPVHERLRLDAAALAALPPLLDAVCRRQAELNPRAPRLLRRLEDAARQARALGAAVEALLAALGAANRGPRAEPPAATASAASATGVFPAKVLGLRVCGLYREWLSRTEGDLGQLLPGGSA
B3: FTV381, human CT-1 variant retaining cysteine 105 with cysteine 178 replaced (ligand)
chain: MSRREGSLEDPQTDSSVSLLPHLEAKIRQTHSLAHLLTKYAEQLLQEYVQLQGDPFGLPSFSPPRLPVAGLSAPAPSHAGLPVHERLRLDAAALAALPPLLDAVCRRQAELNPRAPRLLRRLEDAARQARALGAAVEALLAALGAANRGPRAEPPAATASAASATGVFPAKVLGLRVSGLYREWLSRTEGDLGQLLPGGSA
B4: FTV380, human CT-1 variant with cysteine 105 mutated to serine (ligand)
chain: B3 chain with C105S, S178C

Legend:
[1] = biological target: gp130 (on C2C12 myoblasts) (UniProt Q00560); experiment: cell-based or functional assay
[2] = biological target: T1, gp130 (on C2C12 myoblasts) (UniProt Q00560 23-917, limits assumed); experiment: cell-based or functional assay
T1 sequence (looked up): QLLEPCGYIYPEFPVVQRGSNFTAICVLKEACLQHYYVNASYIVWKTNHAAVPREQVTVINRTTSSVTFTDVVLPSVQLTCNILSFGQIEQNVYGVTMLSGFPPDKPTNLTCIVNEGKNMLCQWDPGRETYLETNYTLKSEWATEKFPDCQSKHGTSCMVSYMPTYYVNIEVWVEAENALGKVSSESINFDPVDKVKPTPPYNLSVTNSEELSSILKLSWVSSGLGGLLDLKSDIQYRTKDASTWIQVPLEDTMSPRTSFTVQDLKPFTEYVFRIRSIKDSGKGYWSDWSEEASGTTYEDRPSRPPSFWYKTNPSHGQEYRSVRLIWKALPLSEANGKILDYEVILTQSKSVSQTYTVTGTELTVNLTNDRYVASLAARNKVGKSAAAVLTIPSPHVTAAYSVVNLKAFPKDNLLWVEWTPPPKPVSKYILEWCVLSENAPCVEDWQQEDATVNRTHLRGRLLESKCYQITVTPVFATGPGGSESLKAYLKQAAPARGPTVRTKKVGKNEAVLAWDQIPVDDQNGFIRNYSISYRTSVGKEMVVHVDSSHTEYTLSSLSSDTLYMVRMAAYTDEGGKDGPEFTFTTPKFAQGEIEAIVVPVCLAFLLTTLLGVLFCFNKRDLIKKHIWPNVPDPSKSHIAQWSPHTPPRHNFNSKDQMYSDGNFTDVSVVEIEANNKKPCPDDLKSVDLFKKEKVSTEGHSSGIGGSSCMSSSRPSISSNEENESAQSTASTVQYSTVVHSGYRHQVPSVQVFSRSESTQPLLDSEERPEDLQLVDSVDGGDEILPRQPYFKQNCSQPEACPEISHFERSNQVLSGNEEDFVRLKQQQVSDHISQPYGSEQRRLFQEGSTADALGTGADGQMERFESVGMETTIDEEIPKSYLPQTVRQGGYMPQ

Binder | EC50, Stat3 phosphorylation in C2C12 cells (western blot densitometry) [1] | mean EC50, Stat3 phosphorylation in C2C12 cells [1] | EC50, Stat3 phosphorylation in C2C12 cells (western blot densitometry) [2]
B1 | 4 ng/mL | 5 ng/mL | –
B2 | – | – | ~1 ng/mL
B3 | 2 to 5 ng/mL | 2.5 ng/mL | –
B4 | 0.35 ng/mL | – | –
